From article PMC6191146, “Positive and negative regulation of transferred nif genes mediated by indigenous GlnR in Gram-positive Paenibacillus polymyxa” come the findings set out here.

In series [1] the target is His6-tagged GlnR of Paenibacillus polymyxa WLY78 (Paenibacillus polymyxa WLY78). The series is described as follows: SEC; Superdex 200 10/300, 50 mM Tris-HCl pH 7.4, 300 mM NaCl; His6-GlnR at 2 mg/ml; dimer to monomers, broad peak with two maxima. In general terms: Size exclusion chromatography separates by hydrodynamic size, large species first.
In series [2] the target is T1, GlnR (Paenibacillus polymyxa WLY78, UniProt A0A074LG55 1-137).
T1 sequence: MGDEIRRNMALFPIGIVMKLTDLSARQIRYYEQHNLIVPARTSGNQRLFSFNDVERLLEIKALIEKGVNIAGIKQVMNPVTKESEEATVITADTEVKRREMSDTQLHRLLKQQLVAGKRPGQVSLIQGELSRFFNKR
The series is described as follows: EMSA; GlnR alone; EMSA: 20 mM HEPES pH 7.6, 1 mM EDTA, 10 mM (NH4)2SO4, 1 mM DTT, 0.2% Tween 20, 30 mM KCl, 1 ug poly[d(A-T)], 0.3 nM probe, 25 C; SPR: 10 mM HEPES pH 7.4, 300 mM NaCl, 3 mM MgCl2, 0.2 mM EDTA, 0.005% Tween-20, 25 C. The note with it: protein: recombinant; tags: N-terminal His6 (pET-28b); chain copies: 2; label: DIG 3' end; blunt. On the technique in general: Mobility shift assays separate free from complexed probe on a gel.

In series [3] the target is T1, GlnR. The series is described as follows: SPR; GlnR alone; EMSA: 20 mM HEPES pH 7.6, 1 mM EDTA, 10 mM (NH4)2SO4, 1 mM DTT, 0.2% Tween 20, 30 mM KCl, 1 ug poly[d(A-T)], 0.3 nM probe, 25 C; SPR: 10 mM HEPES pH 7.4, 300 mM NaCl, 3 mM MgCl2, 0.2 mM EDTA, 0.005% Tween-20, 25 C. The note with it: protein: recombinant, tags: N-terminal His6 (pET-28b), chain copies: 2, label: 5' biotin on capture linker S7, 39 bp duplex.

The target in series [4] is T1, GlnR. The series is described as follows: SPR; GlnR alone; fast dissociation; EMSA: 20 mM HEPES pH 7.6, 1 mM EDTA, 10 mM (NH4)2SO4, 1 mM DTT, 0.2% Tween 20, 30 mM KCl, 1 ug poly[d(A-T)], 0.3 nM probe, 25 C; SPR: 10 mM HEPES pH 7.4, 300 mM NaCl, 3 mM MgCl2, 0.2 mM EDTA, 0.005% Tween-20, 25 C. The note with it: protein: recombinant; tags: N-terminal His6 (pET-28b); chain copies: 2; label: 5' biotin on capture linker S7; 39 bp duplex; 3' overhang 20 nt of BS1R paired to the capture linker. In general terms: Surface plasmon resonance follows binding to a sensor surface in real time, without labels.

Series [5] deals with T1, GlnR. The series is described as follows: SPR; GlnR alone; slow dissociation; EMSA: 20 mM HEPES pH 7.6, 1 mM EDTA, 10 mM (NH4)2SO4, 1 mM DTT, 0.2% Tween 20, 30 mM KCl, 1 ug poly[d(A-T)], 0.3 nM probe, 25 C; SPR: 10 mM HEPES pH 7.4, 300 mM NaCl, 3 mM MgCl2, 0.2 mM EDTA, 0.005% Tween-20, 25 C. The note with it: protein: recombinant; tags: N-terminal His6 (pET-28b); chain copies: 2; label: 5' biotin on capture linker S7; 39 bp duplex; 3' overhang 20 nt of BS2R paired to the capture linker.

One may read the stoichiometry N as a count of units in the complex or per binding partner. As to “His6-tagged GlnR of Paenibacillus polymyxa WLY78 (natural protein)”, the stoichiometry N in series [1] worked out at 2.

B1: EMSA probe mutated site II (ATAACG to ATCGAT) (dsDNA)
DNA 1: AGACAAAAACAGAGATTTATGTAAGGGAATAATCGATAGAGAGGAGGGAATGA
DNA 2: TCATTCCCTCCTCTCTATCGATTATTCCCTTACATAAATCTCTGTTTTTGTCT
With B1, the binding result in series [2] was “no binding”.

B2: SPR oligo site I (BS1F/BS1R on capture linker) (dsDNA)
DNA 1: GTAAAGTGTACGATATATTACTTGACGTAAAATTTGACA
DNA 2: TGTCAAATTTTACGTCAAGTAATATATCGTACACTTTACCCTACCCTACGTCCTCCTGC
DNA 3: GCAGGAGGACGTAGGGTAGG
The term Kd denotes the concentration at which binding is half-saturated. Turning to B2, the Ka in series [3] (3' overhang 20 nt of BS1R paired to the capture linker) was 1.09e+06 M-1 (unit not printed in text). Moreover, the Kd in series [4] is 9.16e-07 M (unit not printed in text).

B3: SPR oligo site II (BS2F/BS2R on capture linker) (dsDNA)
DNA 1: AACAGAGATTTATGTAAGGGAATATAACGTAGAGAGGAG
DNA 2: CTCCTCTCTACGTTATATTCCCTTACATAAATCTCTGTTCCTACCCTACGTCCTCCTGC
DNA 3: GCAGGAGGACGTAGGGTAGG
Turning to B3, the Ka in series [3] (3' overhang 20 nt of BS2R paired to the capture linker) is 1.86e+07 M-1 (unit not printed in text). Moreover, in series [5], the Kd is 5.37e-08 M (unit not printed in text).

B4: EMSA probe mutated site I (TGACGT to GGTACC) (dsDNA)
DNA 1: ACCGCGCACATGTAAAGTGTACGATATATTACTGGTACCAAAATTTGACACATATGTGA
DNA 2: TCACATATGTGTCAAATTTTGGTACCAGTAATATATCGTACACTTTACATGTGCGCGGT
Consider B4, for which, in series [2], the binding result was “no binding”.
